These are literature values, as cited in publication PMC2446434.

This data set addresses CD200 (Mus musculus) (UniProt O54901). As to the kind of experiment: SPR. A general note: SPR reads the build-up and loss of mass on a sensor chip optically.
Sequence of UniProt O54901 (O54901 31-232): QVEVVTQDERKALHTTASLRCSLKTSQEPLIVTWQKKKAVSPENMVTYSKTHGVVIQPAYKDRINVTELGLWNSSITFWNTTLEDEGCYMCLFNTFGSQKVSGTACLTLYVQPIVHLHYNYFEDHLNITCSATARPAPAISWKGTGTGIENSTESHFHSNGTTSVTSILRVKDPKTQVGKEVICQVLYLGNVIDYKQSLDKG

Broadly, the Kd is the concentration at which binding is half-saturated. On to CD200R (from UniProt Q9ES57), for which the Kd is 4 µM.
